Experimental data from IntAct's records for PubMed 25910212.

B1: Ribose-phosphate pyrophosphokinase 1 (Homo sapiens), P60891 (parent)
chain: MPNIKIFSGSSHQDLSQKIADRLGLELGKVVTKKFSNQETCVEIGESVRGEDVYIVQSGCGEINDNLMELLIMINACKIASASRVTAVIPCFPYARQDKKDKSRAPISAKLVANMLSVAGADHIITMDLHASQIQGFFDIPVDNLYAEPAVLKWIRENISEWRNCTIVSPDAGGAKRVTSIADRLNVDFALIHKERKKANEVDRMVLVGDVKDRVAILVDDMADTCGTICHAADKLLSAGATRVYAILTHGIFSGPAISRINNACFEAVVVTNTIPQEDKMKHCSKIQVIDISMILAEAIRRTHNGESVSYLFSHVPL
partner: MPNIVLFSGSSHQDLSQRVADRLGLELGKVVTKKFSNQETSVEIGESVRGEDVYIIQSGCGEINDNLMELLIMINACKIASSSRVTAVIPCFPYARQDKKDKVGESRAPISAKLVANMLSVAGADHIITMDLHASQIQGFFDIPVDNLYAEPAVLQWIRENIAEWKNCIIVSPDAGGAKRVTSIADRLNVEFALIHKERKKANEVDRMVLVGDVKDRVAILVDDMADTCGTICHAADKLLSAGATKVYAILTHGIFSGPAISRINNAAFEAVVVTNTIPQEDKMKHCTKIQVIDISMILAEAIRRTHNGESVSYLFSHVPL
B2: Ketohexokinase (Homo sapiens), P50053-2 (parent)
chain: MEEKQILCVGLVVLDVISLVDKYPKEDSEIRCLSQRWQRGGNASNSCTVLSLLGAPCAFMGSMAPGHVADFVLDDLRRYSVDLRYTVFQTTGSVPIATVIINEASGSRTILYYDRSLPDVSATDFEKVDLTQFKWIHIEGRNASEQVKMLQRIDAHNTRQPPEQKIRVSVEVEKPREELFQLFGYGDVVFVSKDVAKHLGFQSAEEALRGLYGRVRKGAVLVCAWAEEGADALGPDGKLLHSDAFPPPRVVDTLGAGDTFNASVIFSLSQGRSVQEALRFGCQVAGKKCGLQGFDGIV
partner: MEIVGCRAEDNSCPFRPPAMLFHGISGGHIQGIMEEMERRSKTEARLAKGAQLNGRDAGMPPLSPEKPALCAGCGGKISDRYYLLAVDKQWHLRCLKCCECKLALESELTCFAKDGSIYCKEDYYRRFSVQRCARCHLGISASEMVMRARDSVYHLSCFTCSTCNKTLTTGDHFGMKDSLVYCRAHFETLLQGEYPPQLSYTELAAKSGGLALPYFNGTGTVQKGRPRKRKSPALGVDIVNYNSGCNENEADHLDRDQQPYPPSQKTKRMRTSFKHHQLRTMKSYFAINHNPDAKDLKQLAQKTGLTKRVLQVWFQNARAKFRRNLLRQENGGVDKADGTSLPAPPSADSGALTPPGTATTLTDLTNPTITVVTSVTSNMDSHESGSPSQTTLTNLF
B3: Acetylcholine receptor subunit gamma (Homo sapiens), P07510-2 (parent)
chain: MHGGQGPLLLLLLLAVCLGAQGRNQEERLLADLMQNYDPNLRPAERDSDVVNVSLKLTLTNLISLNEREEALTTNVWIEMQWCDYRLRWDPRDYEGLWVLRVPSTMVWRPDIVLENKSQTYSTNEIDLQLSQEDGQTIEWIFIDPEAFTENGEWAIQHRPAKMLLDPAAPAQEAGHQKVVFYLLIQRKPLFYVINIIAPCVLISSVAILIHFLPAKAGGQKCTVAINVLLAQTVFLFLVAKKVPETSQAVPLISKYLTFLLVVTILIVVNAVVVLNVSLRSPHTHSMARGVRKVFLRLLPQLLRMHVRPLAPAAVQDTQSRLQNGSSGWSITTGEEVALCLPRSELLFQQWQRQGLVAAALEKLEKGPELGLSQFCGSLKQAAPAIQACVEACNLIACARHQQSHFDNGNEEWFLVGRVLDRVCFLAMLSLFICGTAGIFLMAHYNRVPALPFPGDPRPYLPSPD
partner: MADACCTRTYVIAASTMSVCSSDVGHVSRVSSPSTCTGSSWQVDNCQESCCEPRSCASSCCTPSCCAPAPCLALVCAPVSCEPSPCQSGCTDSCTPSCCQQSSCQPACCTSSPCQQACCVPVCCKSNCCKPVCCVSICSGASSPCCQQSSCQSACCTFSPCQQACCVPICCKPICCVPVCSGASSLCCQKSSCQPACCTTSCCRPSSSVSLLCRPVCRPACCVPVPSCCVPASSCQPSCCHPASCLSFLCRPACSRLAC
B4: U4/U6 small nuclear ribonucleoprotein Prp31 (Homo sapiens), Q8WWY3 (parent)
chain: MSLADELLADLEEAAEEEEGGSYGEEEEEPAIEDVQEETQLDLSGDSVKTIAKLWDSKMFAEIMMKIEEYISKQAKASEVMGPVEAAPEYRVIVDANNLTVEIENELNIIHKFIRDKYSKRFPELESLVPNALDYIRTVKELGNSLDKCKNNENLQQILTNATIMVVSVTASTTQGQQLSEEELERLEEACDMALELNASKHRIYEYVESRMSFIAPNLSIIIGASTAAKIMGVAGGLTNLSKMPACNIMLLGAQRKTLSGFSSTSVLPHTGYIYHSDIVQSLPPDLRRKAARLVAAKCTLAARVDSFHESTEGKVGYELKDEIERKFDKWQEPPPVKQVKPLPAPLDGQRKKRGGRRYRKMKERLGLTEIRKQANRMSFGEIEEDAYQEDLGFSLGHLGKSGSGRVRQTQVNEATKARISKTLQRTLQKQSVVYGGKSTIRDRSSGTASSVAFTPLQGLEIVNPQAAEKKVAEANQKYFSSMAEFLKVKGEKSGLMST
partner: B3 partner
B5: Emerin (Homo sapiens), P50402 (parent)
chain: MDNYADLSDTELTTLLRRYNIPHGPVVGSTRRLYEKKIFEYETQRRRLSPPSSSAASSYSFSDLNSTRGDADMYDLPKKEDALLYQSKGYNDDYYEESYFTTRTYGEPESAGPSRAVRQSVTSFPDADAFHHQVHDDDLLSSSEEECKDRERPMYGRDSAYQSITHYRPVSASRSSLDLSYYPTSSSTSFMSSSSSSSSWLTRRAIRPENRAPGAGLGQDRQVPLWGQLLLFLVFVIVLFFIYHFMQAEEGNPF
partner: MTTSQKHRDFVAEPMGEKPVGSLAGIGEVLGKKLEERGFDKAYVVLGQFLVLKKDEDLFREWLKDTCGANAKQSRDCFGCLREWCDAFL
B6: Low density lipoprotein receptor adapter protein 1 (Homo sapiens), Q5SW96 (parent)
chain: MDALKSAGRALIRSPSLAKQSWGGGGRHRKLPENWTDTRETLLEGMLFSLKYLGMTLVEQPKGEELSAAAIKRIVATAKASGKKLQKVTLKVSPRGIILTDNLTNQLIENVSIYRISYCTADKMHDKVFAYIAQSQHNQSLECHAFLCTKRKMAQAVTLTVAQAFKVAFEFWQVSKEEKEKRDKASQEGGDVLGARQDCTPSLKSLVATGNLLDLEETAKAPLSTVSANTTNMDEVPRPQALSGSSVVWELDDGLDEAFSRLAQSRTNPQVLDTGLTAQDMHYAQCLSPVDWDKPDSSGTEQDDLFSF
partner: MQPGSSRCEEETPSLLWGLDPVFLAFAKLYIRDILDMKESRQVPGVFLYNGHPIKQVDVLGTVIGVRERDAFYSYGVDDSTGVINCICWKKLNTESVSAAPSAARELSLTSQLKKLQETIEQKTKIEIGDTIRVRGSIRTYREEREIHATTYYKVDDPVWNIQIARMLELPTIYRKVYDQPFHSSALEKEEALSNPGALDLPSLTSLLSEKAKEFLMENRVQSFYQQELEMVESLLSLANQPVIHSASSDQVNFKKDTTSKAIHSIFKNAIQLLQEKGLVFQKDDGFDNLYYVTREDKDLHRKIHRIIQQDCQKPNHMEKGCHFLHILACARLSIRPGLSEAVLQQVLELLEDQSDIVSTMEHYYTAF
B7: Emerin (Homo sapiens), P50402 (parent)
chain: B5 chain
partner: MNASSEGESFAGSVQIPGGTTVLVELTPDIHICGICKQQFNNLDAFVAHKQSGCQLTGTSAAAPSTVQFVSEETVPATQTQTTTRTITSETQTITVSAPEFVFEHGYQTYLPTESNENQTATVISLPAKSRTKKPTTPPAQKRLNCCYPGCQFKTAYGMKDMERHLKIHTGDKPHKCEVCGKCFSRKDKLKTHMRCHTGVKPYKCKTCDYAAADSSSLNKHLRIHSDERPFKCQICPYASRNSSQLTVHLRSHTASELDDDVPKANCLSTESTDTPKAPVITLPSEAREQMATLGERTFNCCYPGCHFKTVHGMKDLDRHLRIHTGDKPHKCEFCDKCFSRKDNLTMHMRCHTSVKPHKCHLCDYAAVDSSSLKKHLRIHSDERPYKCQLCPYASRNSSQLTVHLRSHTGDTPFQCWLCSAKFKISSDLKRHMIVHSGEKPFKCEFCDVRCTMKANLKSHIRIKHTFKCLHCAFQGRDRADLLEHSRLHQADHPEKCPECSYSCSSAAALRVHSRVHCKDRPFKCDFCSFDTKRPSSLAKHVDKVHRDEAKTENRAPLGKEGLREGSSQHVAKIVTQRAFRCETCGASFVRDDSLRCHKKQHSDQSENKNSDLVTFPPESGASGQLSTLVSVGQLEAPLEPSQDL
B8: U4/U6 small nuclear ribonucleoprotein Prp31 (Homo sapiens), Q8WWY3 (parent)
chain: B4 chain
partner: B7 partner
B9: PiggyBac transposable element-derived protein 1 (Homo sapiens), Q96JS3 (parent)
chain: MYEALPGPAPENEDGLVKVKEEDPTWEQVCNSQEGSSHTQEICRLRFRHFCYQEAHGPQEALAQLRELCHQWLRPEMHTKEQIMELLVLEQFLTILPKELQPCVKTYPLESGEEAVTVLENLETGSGDTGQQASVYIQGQDMHPMVAEYQGVSLECQSLQLLPGITTLKCEPPQRPQGNPQEVSGPVPHGSAHLQEKNPRDKAVVPVFNPVRSQTLVKTEEETAQAVAAEKWSHLSLTRRNLCGNSAQETVMSLSPMTEEIVTKDRLFKAKQETSEEMEQSGEASGKPNRECAPQIPCSTPIATERTVAHLNTLKDRHPGDLWARMHISSLEYAAGDITRKGRKKDKARVSELLQGLSFSGDSDVEKDNEPEIQPAQKKLKVSCFPEKSWTKRDIKPNFPSWSALDSGLLNLKSEKLNPVELFELFFDDETFNLIVNETNNYASQKNVSLEVTVQEMRCVFGVLLLSGFMRHPRREMYWEVSDTDQNLVRDAIRRDRFELIFSNLHFADNGHLDQKDKFTKLRPLIKQMNKNFLLYAPLEEYYCFDKSMCECFDSDQFLNGKPIRIGYKIWCGTTTQGYLVWFEPYQEESTMKVDEDPDLGLGGNLVMNFADVLLERGQYPYHLCFDSFFTSVKLLSALKKKGVRATGTIRENRTEKCPLMNVEHMKKMKRGYFDFRIEENNEIILCRWYGDGIISLCSNAVGIEPVNEVSCCDADNEEIPQISQPSIVKVYDECKEGVAKMDQIISKYRVRIRSKKWYSILVSYMIDVAMNNAWQLHRACNPGASLDPLDFRRFVAHFYLEHNAHLSD
partner: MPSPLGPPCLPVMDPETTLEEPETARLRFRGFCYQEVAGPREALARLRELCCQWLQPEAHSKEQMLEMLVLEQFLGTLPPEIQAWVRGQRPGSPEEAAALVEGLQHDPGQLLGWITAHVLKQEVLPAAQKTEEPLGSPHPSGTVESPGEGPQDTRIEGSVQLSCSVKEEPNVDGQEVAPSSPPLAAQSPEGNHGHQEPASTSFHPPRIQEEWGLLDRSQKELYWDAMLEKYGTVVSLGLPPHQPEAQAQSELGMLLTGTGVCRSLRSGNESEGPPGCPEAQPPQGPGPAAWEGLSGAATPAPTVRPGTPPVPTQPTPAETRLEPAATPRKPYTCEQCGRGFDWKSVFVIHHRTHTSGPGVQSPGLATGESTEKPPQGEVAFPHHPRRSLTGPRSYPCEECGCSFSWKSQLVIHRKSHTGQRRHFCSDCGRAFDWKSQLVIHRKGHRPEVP

Variants of: B1
Conditions: with PRPS2, P11908-2

| Variant | effect of a mutation on the interaction |
| --- | --- |
| D183H | with no effect |

Variants of: B2
Conditions: with lhx9_human LHX9, Q9NQ69

| Variant | effect of a mutation on the interaction |
| --- | --- |
| G40R | with no effect |
| A43T | with no effect |

Variants of: B3
Conditions: with kr108_human KRTAP10-8, P60410

| Variant | effect of a mutation on the interaction |
| --- | --- |
| R86C | disrupting interaction strength |
| V107G | disrupting interaction strength |
| R187C | disrupting interaction strength |

Variants of: B4
Conditions: with kr108_human KRTAP10-8, P60410

| Variant | effect of a mutation on the interaction |
| --- | --- |
| L107V | with no effect |

Variants of: B5
Conditions: with baf_human BANF1, O75531

| Variant | effect of a mutation on the interaction |
| --- | --- |
| S54F | with no effect |
| D72V | with no effect |
| P183H | with no effect |
| P183T | with no effect |

Variants of: B6
Conditions: with stn1_human STN1, Q9H668

| Variant | effect of a mutation on the interaction |
| --- | --- |
| R238W | with no effect |

Variants of: B7
Conditions: with zf64b_human ZFP64, Q9NTW7

| Variant | effect of a mutation on the interaction |
| --- | --- |
| S54F | with no effect |
| D72V | with no effect |
| P183H | with no effect |
| P183T | with no effect |

Variants of: B8
Conditions: with zf64b_human ZFP64, Q9NTW7

| Variant | effect of a mutation on the interaction |
| --- | --- |
| L107V | with no effect |

Variants of: B9
Conditions: with zn446_human ZNF446, Q9NWS9

| Variant | effect of a mutation on the interaction |
| --- | --- |
| G244E | with no effect |
| Q248E | with no effect |
| P256L | with no effect |
| I678V | with no effect |
